B1: Rapsn-EGFP, purified (natural protein, UniProt P12672 1-412, looked up)
chain: MGQDQTKQQIEKGLQLYQSNQTEKALQVWMKVLEKGSDLVGRFRVLGCLVTAHSEMGRYKEMLKFAVVQIDTARGLEDADFLLESYLNLARSNEKLCEFHKTISYCKTCLGLPGTRAGAQLGGQVSLSMGNAFLGLSLFQKALESFEKALRYAHNNDDTMLECRVCCSLGSFYAQVKDYEKALFFPCKAAELVNDYGKGWSLKYRAMSQYHMAVAYRLLGHLGSAMECCEESMKIALQHGDRPLQALCLLCFADIHRSRGDLETAFPRYDSAMSIMTEIGNRLGQVHVLLGVAKCWMARKVQDKALDAIEKAQDLAEEVGNKLSQLKLHCLSESIYRSKGLQRELRTHVVRFHECVEETELYCGLCGESIGERNSRLQALPCSHIFHLRCLQNNGTRSCPNCRRSSMKPGFV

Experiments:
[1] = molecular target: α-actinin2 (aa 1M-894L), purified ( (the printed UniProt entry …, UniProt Q9JI91 1-894, CF555 label (Mix-n-Stain CF555))); assay: co-condensation into droplets
α-actinin2 (aa 1M-894L), purified (, sequence (Q9JI91 whole entry): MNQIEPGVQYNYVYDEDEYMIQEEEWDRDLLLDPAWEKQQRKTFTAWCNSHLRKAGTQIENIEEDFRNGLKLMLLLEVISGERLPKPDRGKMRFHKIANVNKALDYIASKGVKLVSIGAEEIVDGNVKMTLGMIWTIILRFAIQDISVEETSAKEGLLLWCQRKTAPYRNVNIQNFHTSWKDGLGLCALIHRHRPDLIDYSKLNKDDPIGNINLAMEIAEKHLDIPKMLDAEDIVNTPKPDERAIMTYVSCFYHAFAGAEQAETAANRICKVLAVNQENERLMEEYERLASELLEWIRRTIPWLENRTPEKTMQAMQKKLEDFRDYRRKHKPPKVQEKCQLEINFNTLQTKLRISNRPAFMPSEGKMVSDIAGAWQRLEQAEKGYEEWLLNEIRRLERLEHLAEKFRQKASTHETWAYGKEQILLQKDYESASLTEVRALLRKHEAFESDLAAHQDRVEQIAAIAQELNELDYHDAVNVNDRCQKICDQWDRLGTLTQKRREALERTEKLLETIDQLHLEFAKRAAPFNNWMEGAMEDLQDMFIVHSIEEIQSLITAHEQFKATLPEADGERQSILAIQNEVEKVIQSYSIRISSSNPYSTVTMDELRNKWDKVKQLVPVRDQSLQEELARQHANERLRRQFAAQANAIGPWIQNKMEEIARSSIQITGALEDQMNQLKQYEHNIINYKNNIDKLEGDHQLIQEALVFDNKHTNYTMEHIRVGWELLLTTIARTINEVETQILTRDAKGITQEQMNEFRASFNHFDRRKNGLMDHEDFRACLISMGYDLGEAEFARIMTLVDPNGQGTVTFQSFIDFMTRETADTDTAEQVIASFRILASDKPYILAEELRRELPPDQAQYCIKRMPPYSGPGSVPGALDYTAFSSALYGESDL

Rapsn-EGFP, purified = molecular target: B1; assay: co-condensation into droplets

Binder | binding result [1] | binding result (Rapsn-EGFP, purified)
B1 | binds | 
GST-AChR-β (loop between 3rd and 4th transmembrane domains) (domain or fragment, UniProt P09690 333-469, looked up, CF555 label (Mix-n-Stain CF555)) HHRSPHTHQMPFWVRQIFIHKLPPYLGLKRPKPERDQLPEPHHSLSPRSGWGRGTDEYFIRKPPSDFLFPKLNRFQPESSAPDLRRFIDGPTRAVGLPQELREVISSISYMARQLQEQEDHDALKEDWQFVAMVVDR |  | binds
GST-MACF1 (aa 1M-293I) (domain or fragment, UniProt Q9QXZ0 1-293, looked up, CF555 label (Mix-n-Stain CF555)) MSSSDEETLSERSCRSERSCRSERSYRSERSGSLSPCPPGDTLPWNLPLHEQKKRKSQDSVLDPAERAVVRVADERDRVQKKTFTKWVNKHLMKVRKHINDLYEDLRDGHNLISLLEVLSGIKLPREKGRMRFHRLQNVQIALDFLKQRQVKLVNIRNDDITDGNPKLTLGLIWTIILHFQISDIYISGESGDMSAKEKLLLWTQKVTAGYTGVKCTNFSSCWSDGKMFNALIHRYRPDLVDMERVQVQSNRENLEQAFEVAERLGVTRLLDAEDVDVPSPDEKSVITYVSSI |  | binds
GST-AChR-α (loop between 3rd and 4th transmembrane domains) (domain or fragment, UniProt P04756 317-428, looked up, CF555 label (Mix-n-Stain CF555)) NTHHRSPSTHIMPEWVRKVFIDTIPNIMFFSTMKRPSRDKQEKRIFTEDIDISDISGKPGPPPMGFHSPLIKHPEVKSAIEGVKYIAETMKSDQESNNAAEEWKYVAMVMDH |  | binds
GST-β-dystroglycan (aa 773Y-893P) (domain or fragment, UniProt Q62165 773-893, looked up, CF555 label (Mix-n-Stain CF555)) YRKKRKGKLTLEDQATFIKKGVPIIFADELDDSKPPPSSSMPLILQEEKAPLPPPEYPNQSMPETTPLNQDTVGEYTPLRDEDPNAPPYQPPPPFTAPMEGKGSRPKNMTPYRSPPPYVPP |  | binds

Reference: publication PMC8217331 (Neuron, 2021)
